Where a chain is given by its changes, count along the chain named.
B1: Vipp1 (α1–α6), truncation of helix α0 (aa 1–23) (domain or fragment, Synechocystis sp. PCC 6803, UniProt Q55707 24-267, looked up)
chain: DPEKVLEQAVIDMQEDLVQLRQAVARTIAEEKRTEQRLNQDTQEAKKWEDRAKLALTNGEENLAREALARKKSLTDTAAAYQTQLAQQRTMSENLRRNLAALEAKISEAKTKKNMLQARAKAAKANAELQQTLGGLGTSSATSAFERMENKVLDMEATSQAAGELAGFGIENQFAQLEASSGVEDELAALKASMAGGALPGTSAATPQLEAAPVDSSVPANNASQDDAVIDQELDDLRRRLNNL
notes: Vipp1 (sll0617) of Synechocystis sp; PCC 6803 without helix α0 (aa 1–23 truncated); The models were built from PDB 7O3W with aa 1–22 removed, whereas the construct lacks aa 1–23; Residues of the 3C site may remain at the C-terminus; also called Vipp1(α1-6); truncated Vipp1 lacking α0; not shown: His-tag, C-terminal, cleaved
B2: Vipp1 dL10 (truncation of aa 157–166) (natural protein, Synechocystis sp. PCC 6803, UniProt Q55707 1-267, looked up)
chain: MGLFDRLGRVVRANLNDLVSKAEDPEKVLEQAVIDMQEDLVQLRQAVARTIAEEKRTEQRLNQDTQEAKKWEDRAKLALTNGEENLAREALARKKSLTDTAAAYQTQLAQQRTMSENLRRNLAALEAKISEAKTKKNMLQARAKAAKANAELQQTLAFERMENKVLDMEATSQAAGELAGFGIENQFAQLEASSGVEDELAALKASMAGGALPGTSAATPQLEAAPVDSSVPANNASQDDAVIDQELDDLRRRLNNL
notes: Vipp1 (sll0617) of Synechocystis sp; PCC 6803 with aa 157–166 (hinge 2) deleted; The methods describe the purification and tag cleavage only for Vipp1 and Vipp1 (α1–α6); source: E. coli C41
B3: Vesicle-inducing protein in plastids 1 (Vipp1), full length, Synechocystis sp. PCC 6803 (natural protein, UniProt Q55707 1-267, looked up)
chain: MGLFDRLGRVVRANLNDLVSKAEDPEKVLEQAVIDMQEDLVQLRQAVARTIAEEKRTEQRLNQDTQEAKKWEDRAKLALTNGEENLAREALARKKSLTDTAAAYQTQLAQQRTMSENLRRNLAALEAKISEAKTKKNMLQARAKAAKANAELQQTLGGLGTSSATSAFERMENKVLDMEATSQAAGELAGFGIENQFAQLEASSGVEDELAALKASMAGGALPGTSAATPQLEAAPVDSSVPANNASQDDAVIDQELDDLRRRLNNL
notes: Vipp1 (sll0617) of Synechocystis sp; PCC 6803, full length; The C-terminal His-tag was cut off with 3C protease; residues of the 3C site may remain at the C-terminus; The deposited models hold 215 residues only; also called IM30; WT; not shown: His-tag, C-terminal, cleaved
B4: Vipp1 dL10Ala (substitution of aa 157–166 to alanine) (natural protein, Synechocystis sp. PCC 6803, UniProt Q55707 1-267, looked up)
chain: B3 chain with G157A, G158A, L159A, G160A, T161A, S162A, S163A, T165A, S166A
notes: Vipp1 (sll0617) of Synechocystis sp; PCC 6803 with the hinge 2 region (aa 157–166) replaced by ten alanines; The methods describe the denaturing purification and tag cleavage only for Vipp1 and Vipp1 (α1–α6); this mutant was probably handled in the same way; also called Vipp1dlA10; plasticity-restrained Vipp1 mutant; source: E. coli C41; reconstituted with EPL lipids or without membranes

How the values were obtained:
[1] = target: the molecule itself; test: cryo-EM structure; Vipp1 (α1–α6) with and without EPL membrane reconstitution; single-particle helical reconstruction of rods
[2] = target: the molecule itself; test: negative-staining EM; protein refolded in the absence of membranes; 2% uranyl acetate
[3] = target: the molecule itself; test: cryo-EM structure; urea-unfolded protein added to an EPL lipid film and refolded by dialysis against 10 mM Tris-HCl pH 8.0; single-particle helical reconstruction or rotational symmetry (tubes, stacked rings, rings)

Protein	binding result [3]	also measured
B1		binding result [1]: binds
B2		binding result [2]: binds
B3	binds	
B4	binds	

— PMC11919686, “Structural basis for Vipp1 membrane binding: from loose coats and carpets to ring and rod assemblies” (Nature Structural & Molecular Biology, 2024)
